Results on 14 molecules are retold here after patent US20100260668A1 (published 2010).

In this assay the target is T1, VEGF (UniProt P15692-4 27-191).
T1 construct: Bought reagent; also called vascular endothelial growth factor
Nature of the assay: BIACORE SPR. (In general: In SPR one partner is held on a chip, and binding of the other changes the refractive index at the surface.)

T1 sequence (P15692 other isoform, or with tags, fused parts or gaps limits assumed): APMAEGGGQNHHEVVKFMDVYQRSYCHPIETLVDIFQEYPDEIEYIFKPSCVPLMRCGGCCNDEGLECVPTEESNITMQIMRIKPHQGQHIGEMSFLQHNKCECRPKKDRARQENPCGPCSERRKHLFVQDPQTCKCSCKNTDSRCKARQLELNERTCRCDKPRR

B1: DVD442 (bispecific antibody, human IgG1, kappa)
heavy: not shown
light: DIQMTQSPSSLSASVGDRVTITCSASQDISNYLNWYQQKPGKAPKVLIYFTSSLHSGVPSRFSGSGSGTDFTLTISSLQPEDFATYYCQQYSTVPWTFGQGTKVEIKRTVAAPDIVMTQSPDSLAVSLGERATISCRASESVDNYGISFMKWFQQKPGQPPKLLIYAASNQGSGVPDRFSGSGSGTDFTLTISSLQAEDVAVYYCQQSKEVPWTFGGGTKVEIKRTVAAPSVFIFPPSDEQLKSGTASVVCLLNNFYPREAKVQWKVDNALQSGNSQESVTEQDSKDSTYSLSSTLTLSKADYEKHKVYACEVTHQGLSSPVTKSFNRGEC
notes: DVD-Ig; N-term; AB014 (VEGF), C-term; AB069 (DLL4); HC linker short, LC linker short; also called DVD442H; DVD442L
Usually Kd stands for a measure of binding affinity in units of concentration. A lower Kd goes with tighter binding. As a reminder, the koff is the rate constant with which the complex falls apart. Lower therefore signals a long-lived complex. For orientation: kon means a measure of how fast the partners come together. With B1, the dissociation constant Kd was determined as 0.088 nM, the koff is 0.00017 s⁻¹ and the kon amounted to 1.93e+06 M⁻¹ s⁻¹.

B2: DVD454 (bispecific antibody, human IgG1, kappa)
heavy: not shown
light: B1 light
notes: DVD-Ig; N-term; AB014 (VEGF), C-term; AB069 (DLL4); HC linker long, LC linker short; also called DVD454H; DVD454L
For B2, binding was characterised by a dissociation constant (Kd) of 0.079 nM, the off-rate constant (koff) is 0.000126 s⁻¹ and the kon stood at 1.59e+06 M⁻¹ s⁻¹.

B3: DVD467 (bispecific antibody, human IgG1, kappa)
heavy: not shown
light: DIQMTQSPSSLSASVGDRVTITCRASQDVSTAVAWYQQKPGKAPKLLIYSASFLYSGVPSRFSGSGSGTDFTLTISSLQPEDFATTYYCQQSYTGTVTFGQGTKVEIKRTVAAPDIQMTQSPSSLSASVGDRVTITCRASQVIRRSLAWYQQKPGKAPKLLIYAASNLASGVPSRFSGSGSGTDFTLTISSLQPEDFATYYCQQSNTSPLTFGQGTKVEIKRTVAAPSVFIFPPSDEQLKSGTASVVCLLNNFYPREAKVQWKVDNALQSGNSQESVTEQDSKDSTYSLSSTLTLSKADYEKHKVYACEVTHQGLSSPVTKSFNRGEC
notes: DVD-Ig; N-term; AB015 (DLL4), C-term; AB071 (VEGF); HC linker short, LC linker short; also called DVD467H; DVD467L
B3 returned an equilibrium dissociation constant (Kd) of 1.33 nM, a koff of 0.000236 s⁻¹ and a kon of 177000 M⁻¹ s⁻¹.

B4: DVD512 (bispecific antibody, human IgG1, lambda, L234A L235A)
heavy: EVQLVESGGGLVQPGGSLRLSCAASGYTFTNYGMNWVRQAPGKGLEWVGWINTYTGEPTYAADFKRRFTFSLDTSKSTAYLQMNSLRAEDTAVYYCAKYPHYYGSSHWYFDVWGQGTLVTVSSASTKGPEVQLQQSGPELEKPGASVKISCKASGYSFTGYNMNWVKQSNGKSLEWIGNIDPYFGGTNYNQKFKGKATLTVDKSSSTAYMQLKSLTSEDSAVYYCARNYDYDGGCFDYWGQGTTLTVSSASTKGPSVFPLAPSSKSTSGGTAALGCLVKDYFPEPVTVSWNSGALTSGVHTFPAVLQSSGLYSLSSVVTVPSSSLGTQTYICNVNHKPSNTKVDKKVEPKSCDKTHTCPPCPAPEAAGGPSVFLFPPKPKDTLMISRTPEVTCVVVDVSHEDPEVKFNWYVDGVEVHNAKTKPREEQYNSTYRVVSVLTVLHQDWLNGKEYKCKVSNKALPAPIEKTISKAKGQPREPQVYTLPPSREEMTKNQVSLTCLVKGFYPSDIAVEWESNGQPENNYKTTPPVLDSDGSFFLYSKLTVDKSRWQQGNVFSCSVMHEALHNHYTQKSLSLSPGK
light: DIQMTQSPSSLSASVGDRVTITCSASQDISNYLNWYQQKPGKAPKVLIYFTSSLHSGVPSRFSGSGSGTDFTLTISSLQPEDFATYYCQQYSTVPWTFGQGTKVEIKRTVAAPQAVVTQESALTTSPGETVTLTCRSSTGAVTTSNYANWVQEKPDHLFTGLIGGTNNRAPGVPARFSGSLIGDKAALTITGAQTEDEAIYFCALWYSNHWVFGGGTKLTVLGQPKAAPSVTLFPPSSEELQANKATLVCLISDFYPGAVTVAWKADSSPVKAGVETTTPSKQSNNKYAASSYLSLTPEQWKSHRSYSCQVTHEGSTVEKTVAPTECS
notes: DVD-Ig; N-term; AB014 (VEGF), C-term; AB073 (DLL4); HC linker short, LC linker short; also called DVD512H; DVD512L
As to B4, the affinity, expressed as Kd, was 0.153 nM; the koff is 0.000143 s⁻¹; the kon turned out to be 939000 M⁻¹ s⁻¹.

B5: DVD524 (bispecific antibody, human IgG1, lambda)
heavy: not shown
light: B4 light
notes: DVD-Ig; N-term; AB014 (VEGF), C-term; AB073 (DLL4); HC linker long, LC linker short; also called DVD524H; DVD524L
On to B5, for which the Kd amounted to 0.113 nM, the koff was found to be 0.000188 s⁻¹ and the association rate constant (kon) was 1.67e+06 M⁻¹ s⁻¹.

B6: DVD494 (bispecific antibody, human IgG1, kappa)
heavy: not shown
light: DIQMTQSPSSLSASVGDRVTITCSASQDISNYLNWYQQKPGKAPKVLIYFTSSLHSGVPSRFSGSGSGTDFTLTISSLQPEDFATYYCQQYSTVPWTFGQGTKVEIKRTVAAPSVFIFPPDIQMTQSSSYLSVSLGGRVTITCKASDHINNWLAWYQQKPGNAPRLLISGATSLETGVPSRFSGSGSGKDYTLSITSLQTEDVATYYCQQYWSIPLTFGAGTKLELKRTVAAPSVFIFPPSDEQLKSGTASVVCLLNNFYPREAKVQWKVDNALQSGNSQESVTEQDSKDSTYSLSSTLTLSKADYEKHKVYACEVTHQGLSSPVTKSFNRGEC
notes: DVD-Ig; N-term; AB014 (VEGF), C-term; AB072 (DLL4); HC linker long, LC linker long; also called DVD494H; DVD494L
Molecule B6 had a Kd of 0.566 nM, a koff of 0.0176 s⁻¹ and a kon of 3.11e+07 M⁻¹ s⁻¹.

B7: DVD506 (bispecific antibody, human IgG1, kappa)
heavy: not shown
light: B6 light
notes: DVD-Ig; N-term; AB014 (VEGF), C-term; AB072 (DLL4); HC linker short, LC linker long; also called DVD506H; DVD506L
Turning to B7, the Kd is 0.281 nM, the koff is 0.000171 s⁻¹ and the kon worked out at 606000 M⁻¹ s⁻¹.

B8: DVD488 (bispecific antibody, human IgG1, kappa)
heavy: not shown
light: DIQMTQSPSSLSASVGDRVTITCSASQDISNYLNWYQQKPGKAPKVLIYFTSSLHSGVPSRFSGSGSGTDFTLTISSLQPEDFATYYCQQYSTVPWTFGQGTKVEIKRTVAAPDIQMTQSSSYLSVSLGGRVTITCKASDHINNWLAWYQQKPGNAPRLLISGATSLETGVPSRFSGSGSGKDYTLSITSLQTEDVATYYCQQYWSIPLTFGAGTKLELKRTVAAPSVFIFPPSDEQLKSGTASVVCLLNNFYPREAKVQWKVDNALQSGNSQESVTEQDSKDSTYSLSSTLTLSKADYEKHKVYACEVTHQGLSSPVTKSFNRGEC
notes: DVD-Ig; N-term; AB014 (VEGF), C-term; AB072 (DLL4); HC linker short, LC linker short; also called DVD488H; DBD488L
Turning to B8, binding was put at a Kd of 0.536 nM, the koff came to 0.000374 s⁻¹ and the kon worked out at 699000 M⁻¹ s⁻¹.

B9: DVD500 (bispecific antibody, human IgG1, kappa)
heavy: not shown
light: B8 light
notes: DVD-Ig; N-term; AB014 (VEGF), C-term; AB072 (DLL4); HC linker long, LC linker short; also called DVD500H; DVD500L
For B9, the Kd amounted to 0.504 nM, the koff turned out to be 0.000248 s⁻¹ and the kon turned out to be 492000 M⁻¹ s⁻¹.

B10: DVD473 (bispecific antibody, human IgG1, kappa)
heavy: not shown
light: DIQMTQSPSSLSASVGDRVTITCRASQDVSTAVAWYQQKPGKAPKLLIYSASFLYSGVPSRFSGSGSGTDFTLTISSLQPEDFATTYYCQQSYTGTVTFGQGTKVEIKRTVAAPSVFIFPPDIQMTQSPSSLSASVGDRVTITCRASQVIRRSLAWYQQKPGKAPKLLIYAASNLASGVPSRFSGSGSGTDFTLTISSLQPEDFATYYCQQSNTSPLTFGQGTKVEIKRTVAAPSVFIFPPSDEQLKSGTASVVCLLNNFYPREAKVQWKVDNALQSGNSQESVTEQDSKDSTYSLSSTLTLSKADYEKHKVYACEVTHQGLSSPVTKSFNRGEC
notes: DVD-Ig; N-term; AB015 (DLL4), C-term; AB071 (VEGF); HC linker long, LC linker long; also called DVD473H; DVD473L
B10 gave a Kd of 1.27 nM, a koff of 0.000265 s⁻¹ and a kon of 209000 M⁻¹ s⁻¹.

B11: DVD448 (bispecific antibody, human IgG1, kappa)
heavy: not shown
light: DIQMTQSPSSLSASVGDRVTITCSASQDISNYLNWYQQKPGKAPKVLIYFTSSLHSGVPSRFSGSGSGTDFTLTISSLQPEDFATYYCQQYSTVPWTFGQGTKVEIKRTVAAPSVFIFPPDIVMTQSPDSLAVSLGERATISCRASESVDNYGISFMKWFQQKPGQPPKLLIYAASNQGSGVPDRFSGSGSGTDFTLTISSLQAEDVAVYYCQQSKEVPWTFGGGTKVEIKRTVAAPSVFIFPPSDEQLKSGTASVVCLLNNFYPREAKVQWKVDNALQSGNSQESVTEQDSKDSTYSLSSTLTLSKADYEKHKVYACEVTHQGLSSPVTKSFNRGEC
notes: DVD-Ig; N-term; AB014 (VEGF), C-term; AB069 (DLL4); HC linker long, LC linker long; also called DVD448H; DVD448L
The molecule B11 returned a Kd of 0.271 nM, a koff of 0.000136 s⁻¹ and an on-rate constant (kon) of 504000 M⁻¹ s⁻¹.

B12: DVD460 (bispecific antibody, human IgG1, kappa)
heavy: not shown
light: B11 light
notes: DVD-Ig; N-term; AB014 (VEGF), C-term; AB069 (DLL4); HC linker short, LC linker long; also called DVD460H; DVD460L
Consider B12, for which binding was put at a Kd of 0.174 nM, the koff was determined as 0.000228 s⁻¹ and the kon was 1.32e+06 M⁻¹ s⁻¹.

B13: DVD518 (bispecific antibody, human IgG1, kappa, lambda)
heavy: not shown
light: DIQMTQSPSSLSASVGDRVTITCSASQDISNYLNWYQQKPGKAPKVLIYFTSSLHSGVPSRFSGSGSGTDFTLTISSLQPEDFATYYCQQYSTVPWTFGQGTKVEIKRTVAAPSVFIFPPQAVVTQESALTTSPGETVTLTCRSSTGAVTTSNYANWVQEKPDHLFTGLIGGTNNRAPGVPARFSGSLIGDKAALTITGAQTEDEAIYFCALWYSNHWVFGGGTKLTVLGQPKAAPSVTLFPPSSEELQANKATLVCLISDFYPGAVTVAWKADSSPVKAGVETTTPSKQSNNKYAASSYLSLTPEQWKSHRSYSCQVTHEGSTVEKTVAPTECS
notes: DVD-Ig; N-term; AB014 (VEGF), C-term; AB073 (DLL4); HC linker long, LC linker long; also called DVD518H; DVD518L
Turning to B13, the Kd was found to be 0.434 nM, the koff was 0.125 s⁻¹ and the kon stood at 2.88e+08 M⁻¹ s⁻¹.

B14: DVD530 (bispecific antibody, human IgG1, kappa, lambda, L234A L235A)
heavy: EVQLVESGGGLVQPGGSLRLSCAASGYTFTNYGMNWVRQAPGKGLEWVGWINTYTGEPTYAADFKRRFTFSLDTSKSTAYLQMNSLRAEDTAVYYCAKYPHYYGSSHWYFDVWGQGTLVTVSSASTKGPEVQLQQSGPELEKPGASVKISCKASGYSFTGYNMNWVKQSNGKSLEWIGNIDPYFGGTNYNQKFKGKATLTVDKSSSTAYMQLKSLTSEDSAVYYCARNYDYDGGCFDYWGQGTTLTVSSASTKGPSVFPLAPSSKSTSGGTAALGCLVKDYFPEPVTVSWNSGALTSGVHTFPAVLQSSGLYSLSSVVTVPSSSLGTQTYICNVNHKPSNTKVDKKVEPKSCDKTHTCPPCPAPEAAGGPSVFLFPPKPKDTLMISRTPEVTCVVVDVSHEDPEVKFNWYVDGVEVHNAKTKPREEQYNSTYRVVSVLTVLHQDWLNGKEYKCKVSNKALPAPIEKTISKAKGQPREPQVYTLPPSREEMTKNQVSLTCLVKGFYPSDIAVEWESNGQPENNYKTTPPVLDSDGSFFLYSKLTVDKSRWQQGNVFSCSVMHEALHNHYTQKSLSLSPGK
light: B13 light
notes: DVD-Ig; N-term; AB014 (VEGF), C-term; AB073 (DLL4); HC linker short, LC linker long; also called DVD530H; DVD530L
For the molecule B14, the affinity, expressed as Kd, was 0.136 nM; the koff was found to be 0.000171 s⁻¹; the kon came out at 1.26e+06 M⁻¹ s⁻¹.
